This is an account of results in patent US20110165624A1 (REGENTS OF THEUNIVERSITY OF MICHIGAN, published 2011).

This data set deals with the molecule itself. As to the kind of experiment: size exclusion chromatography, Superdex 75, non-denaturing; self-association (dimerization).

B1: Mocr protein (monomeric Ocr, F53R and V77D) as produced from the pMCSG7 vector (pMocr) (other)
chain: MHHHHHHSSGVDLAMSNMTYNNVFDHAYEMLKENIRYDDIRDTDDLHDAIHMAADNAVPHYYADIRSVMASEGIDLEFEDSGLMPDTKDDIRILQARIYEQLTIDLWEDAEDLLNEYLEEVEEYEEDEEGTENLYFQSNICSG
notes: […]; The predicted molecular weight is 16.7 kDa; also called synthetic Mocr
As for B1, the binding result is on record as “no binding”.
